Laboratory results from paper PMC9121386 (Journal of the American Chemical Society, 2022).

What was measured:
Assay in all cases: cross-linking
[1] = target: uL16 (60S ribosomal subunit protein) (human (endogenous in H1299), UniProt P27635 1-214)
[2] = target: eS25 (40S ribosomal subunit protein) (human (endogenous in H1299), UniProt P62851 1-125)
[3] = target: uL4 (60S ribosomal subunit protein) (human (endogenous in H1299), UniProt P36578 1-427)
[4] = target: uL2 (60S ribosomal subunit protein) (human (endogenous in H1299), UniProt P62917 1-257)

Measured: binding result

B1: fragile histidine triad (Fhit), wild type (enzyme)
chain: not shown
binds: all assays above
